Experimental data from IntAct's records for PubMed 20169075.

B1: Sec-independent protein translocase protein TatC (Escherichia coli (strain K12)), P69423 (parent)
chain: MSVEDTQPLITHLIELRKRLLNCIIAVIVIFLCLVYFANDIYHLVSAPLIKQLPQGSTMIATDVASPFFTPIKLTFMVSLILSAPVILYQVWAFIAPALYKHERRLVVPLLVSSSLLFYIGMAFAYFVVFPLAFGFLANTAPEGVQVSTDIASYLSFVMALFMAFGVSFEVPVAIVLLCWMGITSPEDLRKKRPYVLVGAFVVGMLLTPPDVFSQTLLAIPMYCLFEIGVFFSRFYVGKGRNREEENDAEAESEKTEE
B2: Dimethyl sulfoxide reductase DmsA (Escherichia coli (strain K12)), P18775 (parent)
chain: MKTKIPDAVLAAEVSRRGLVKTTAIGGLAMASSALTLPFSRIAHAVDSAIPTKSDEKVIWSACTVNCGSRCPLRMHVVDGEIKYVETDNTGDDNYDGLHQVRACLRGRSMRRRVYNPDRLKYPMKRVGARGEGKFERISWEEAYDIIATNMQRLIKEYGNESIYLNYGTGTLGGTMTRSWPPGNTLVARLMNCCGGYLNHYGDYSSAQIAEGLNYTYGGWADGNSPSDIENSKLVVLFGNNPGETRMSGGGVTYYLEQARQKSNARMIIIDPRYTDTGAGREDEWIPIRPGTDAALVNGLAYVMITENLVDQAFLDKYCVGYDEKTLPASAPKNGHYKAYILGEGPDGVAKTPEWASQITGVPADKIIKLAREIGSTKPAFISQGWGPQRHANGEIATRAISMLAILTGNVGINGGNSGAREGSYSLPFVRMPTLENPIQTSISMFMWTDAIERGPEMTALRDGVRGKDKLDVPIKMIWNYAGNCLINQHSEINRTHEILQDDKKCELIVVIDCHMTSSAKYADILLPDCTASEQMDFALDASCGNMSYVIFNDQVIKPRFECKTIYEMTSELAKRLGVEQQFTEGRTQEEWMRHLYAQSREAIPELPTFEEFRKQGIFKKRDPQGHHVAYKAFREDPQANPLTTPSGKIEIYSQALADIAATWELPEGDVIDPLPIYTPGFESYQDPLNKQYPLQLTGFHYKSRVHSTYGNVDVLKAACRQEMWINPLDAQKRGIHNGDKVRIFNDRGEVHIEAKVTPRMMPGVVALGEGAWYDPDAKRVDKGGCINVLTTQRPSPLAKGNPSHTNLVQVEKV
partner: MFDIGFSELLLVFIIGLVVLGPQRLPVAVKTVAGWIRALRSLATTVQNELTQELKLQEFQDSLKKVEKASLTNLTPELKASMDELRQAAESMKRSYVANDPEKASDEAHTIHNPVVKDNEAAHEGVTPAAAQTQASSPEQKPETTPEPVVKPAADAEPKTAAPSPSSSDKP
B3: Dimethyl sulfoxide reductase DmsA (Escherichia coli (strain K12)), P18775 (parent)
chain: B2 chain
partner: B1 chain
B4: Tat proofreading chaperone DmsD (Escherichia coli (strain K12)), P69853 (parent)
chain: MTHFSQQDNFSVAARVLGALFYYAPESAEAAPLVAVLTSDGWETQWPLPEASLAPLVTAFQTQCEETHAQAWQRLFVGPWALPSPPWGSVWLDRESVLFGDSTLALRQWMREKGIQFEMKQNEPEDHFGSLLLMAAWLAENGRQTECEELLAWHLFPWSTRFLDVFIEKAEHPFYRALGELARLTLAQWQSQLLIPVAVKPLFR

Variants of: B1
Conditions: with dmsa_ecoli dmsA, P18775

Variant | effect of a mutation on the interaction
P48A | decreasing interaction
E103R | decreasing interaction

Variants of: B1
Conditions: with dmsd_ecoli dmsD

Variant | effect of a mutation on the interaction
P48A | decreasing interaction
E103R | disrupting interaction

Variants of: B2
Conditions: with tatb_ecoli tatB

Variant | effect of a mutation on the interaction
R16K;R17K | increasing interaction

Variants of: B3
Conditions: with tatc_ecoli tatC, P69423

Variant | effect of a mutation on the interaction
R16K;R17K | increasing interaction

Variants of: B4
Conditions: with dmsa_ecoli dmsA

Variant | effect of a mutation on the interaction
W72H;L75Y | increasing interaction
